Measurements: the supplement of paper PMC9112550, “Optimization of the antimicrobial peptide Bac7 by deep mutational scanning” (BMC Biology, 2022)

System: Escherichia coli TOP10
Assay: shrunken log2 fold change of peptide-encoding DNA abundance (4.5 h post-induction vs induction); higher = less antimicrobial activity (less host growth inhibition)
Settings: time post-induction: 4.5 h; library: site-saturation at positions 5, 18, 19, 20
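Note: peptides expressed intracellularly from a pBAD plasmid library in pooled LB shake-flask culture, induced with 0.3% L-arabinose, DNA abundance read by NGS, three biological replicates, DESeq2 with apeglm shrinkage.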

RRIRLRPPRLPRPRPRPIRNPRP
shrunken log2 fold change: -0.45

RRIRARPPRLPRPRPRPRNDPRP
shrunken log2 fold change: 0.0481

RRIRCRPPRLPRPRPRPHKGPRP
shrunken log2 fold change: -0.363

RRIRSRPPRLPRPRPRPFRDPRP
shrunken log2 fold change: -0.123

RRIRARPPRLPRPRPRPQLRPRP
shrunken log2 fold change: 0.157

RRIRDRPPRLPRPRPRPVRFPRP
shrunken log2 fold change: 0.189

RRIRQRPPRLPRPRPRPNSNPRP
shrunken log2 fold change: -0.648

RRIRKRPPRLPRPRPRPMCQPRP
shrunken log2 fold change: -0.0286

RRIRSRPPRLPRPRPRPYHIPRP
shrunken log2 fold change: -0.845

RRIRERPPRLPRPRPRPKITPRP
shrunken log2 fold change: -0.514

RRIRKRPPRLPRPRPRPARGPRP
shrunken log2 fold change: 0.766

RRIRVRPPRLPRPRPRPNIPPRP
shrunken log2 fold change: -0.463

RRIRNRPPRLPRPRPRPPSIPRP
shrunken log2 fold change: -0.0153

RRIRQRPPRLPRPRPRPMHWPRP
shrunken log2 fold change: 0.0747

RRIRVRPPRLPRPRPRPSVVPRP
shrunken log2 fold change: 0.00363

RRIRQRPPRLPRPRPRPKEEPRP
shrunken log2 fold change: 0.00489

RRIRARPPRLPRPRPRPNWKPRP
shrunken log2 fold change: -0.0233

RRIRIRPPRLPRPRPRPQWLPRP
shrunken log2 fold change: -0.0168

RRIRARPPRLPRPRPRPDMPPRP
shrunken log2 fold change: 0.0755

RRIRGRPPRLPRPRPRPGWIPRP
shrunken log2 fold change: 0.117

RRIRWRPPRLPRPRPRPHDAPRP
shrunken log2 fold change: -0.145

RRIRSRPPRLPRPRPRPLGGPRP
shrunken log2 fold change: 0.455

RRIRERPPRLPRPRPRPFDKPRP
shrunken log2 fold change: -1.7

RRIRYRPPRLPRPRPRPLHWPRP
shrunken log2 fold change: -0.211

RRIRRRPPRLPRPRPRPNAWPRP
shrunken log2 fold change: 0.597

RRIRIRPPRLPRPRPRPFYNPRP
shrunken log2 fold change: -0.756

RRIRCRPPRLPRPRPRPTPYPRP
shrunken log2 fold change: 0.00933

RRIRWRPPRLPRPRPRPAHEPRP
shrunken log2 fold change: 0.1

RRIRYRPPRLPRPRPRPMCQPRP
shrunken log2 fold change: -0.394

RRIRNRPPRLPRPRPRPGPNPRP
shrunken log2 fold change: 0.0126

RRIRGRPPRLPRPRPRPAPFPRP
shrunken log2 fold change: 0.722

RRIRFRPPRLPRPRPRPLNWPRP
shrunken log2 fold change: -0.109

RRIRFRPPRLPRPRPRPEFPPRP
shrunken log2 fold change: -0.132

RRIRYRPPRLPRPRPRPGQVPRP
shrunken log2 fold change: -0.0686

RRIRSRPPRLPRPRPRPARAPRP
shrunken log2 fold change: 0.985

RRIRGRPPRLPRPRPRPQYKPRP
shrunken log2 fold change: -0.136

RRIRCRPPRLPRPRPRPSHDPRP
shrunken log2 fold change: -0.235

RRIRGRPPRLPRPRPRPECYPRP
shrunken log2 fold change: 0.25

RRIRKRPPRLPRPRPRPRSQPRP
shrunken log2 fold change: 0.051

RRIRRRPPRLPRPRPRPWIMPRP
shrunken log2 fold change: 0.0607

RRIRCRPPRLPRPRPRPPIWPRP
shrunken log2 fold change: 0.134

RRIRRRPPRLPRPRPRPSGLPRP
shrunken log2 fold change: 0.00401

RRIRWRPPRLPRPRPRPNAYPRP
shrunken log2 fold change: -0.214

RRIRARPPRLPRPRPRPPYLPRP
shrunken log2 fold change: -0.188

RRIRDRPPRLPRPRPRPKMPPRP
shrunken log2 fold change: -0.0144

RRIRMRPPRLPRPRPRPVYMPRP
shrunken log2 fold change: -0.214

RRIRCRPPRLPRPRPRPNNNPRP
shrunken log2 fold change: -0.797

RRIRYRPPRLPRPRPRPYCSPRP
shrunken log2 fold change: -0.00208

RRIRSRPPRLPRPRPRPSRIPRP
shrunken log2 fold change: -0.106

RRIRYRPPRLPRPRPRPCKYPRP
shrunken log2 fold change: -0.627

RRIRQRPPRLPRPRPRPVAIPRP
shrunken log2 fold change: -0.367

RRIRLRPPRLPRPRPRPHHYPRP
shrunken log2 fold change: -0.628

RRIRFRPPRLPRPRPRPDKHPRP
shrunken log2 fold change: -0.478

RRIRPRPPRLPRPRPRPRWAPRP
shrunken log2 fold change: 0.394

RRIRQRPPRLPRPRPRPEKLPRP
shrunken log2 fold change: -0.12

RRIRVRPPRLPRPRPRPMQQPRP
shrunken log2 fold change: 0.108

RRIRNRPPRLPRPRPRPAMLPRP
shrunken log2 fold change: -0.145

RRIRGRPPRLPRPRPRPPLTPRP
shrunken log2 fold change: 0.971

RRIRERPPRLPRPRPRPTWAPRP
shrunken log2 fold change: 0.115

RRIRFRPPRLPRPRPRPPHSPRP
shrunken log2 fold change: 0.386

RRIRVRPPRLPRPRPRPMECPRP
shrunken log2 fold change: -0.00192

RRIRPRPPRLPRPRPRPNPDPRP
shrunken log2 fold change: 0.0105

RRIRARPPRLPRPRPRPFAIPRP
shrunken log2 fold change: -0.239

RRIRHRPPRLPRPRPRPWRGPRP
shrunken log2 fold change: 0.115

RRIRKRPPRLPRPRPRPCGVPRP
shrunken log2 fold change: 0.143

RRIRDRPPRLPRPRPRPWGNPRP
shrunken log2 fold change: -0.0163

RRIRTRPPRLPRPRPRPMTKPRP
shrunken log2 fold change: -0.0084

RRIRPRPPRLPRPRPRPVDLPRP
shrunken log2 fold change: 0.036

RRIRERPPRLPRPRPRPVEFPRP
shrunken log2 fold change: -0.309

RRIRRRPPRLPRPRPRPGVSPRP
shrunken log2 fold change: 0.249

RRIRARPPRLPRPRPRPHYQPRP
shrunken log2 fold change: -0.459

RRIRQRPPRLPRPRPRPTEKPRP
shrunken log2 fold change: -0.047

RRIRPRPPRLPRPRPRPVKWPRP
shrunken log2 fold change: 0.00231

RRIRYRPPRLPRPRPRPQMCPRP
shrunken log2 fold change: -0.0257

RRIRIRPPRLPRPRPRPCTQPRP
shrunken log2 fold change: -0.361

RRIRARPPRLPRPRPRPIMMPRP
shrunken log2 fold change: -0.245

RRIRMRPPRLPRPRPRPPLTPRP
shrunken log2 fold change: 0.843

RRIRSRPPRLPRPRPRPCMKPRP
shrunken log2 fold change: -1.6

RRIRNRPPRLPRPRPRPEKFPRP
shrunken log2 fold change: -0.165

RRIRHRPPRLPRPRPRPAIEPRP
shrunken log2 fold change: 0.0588

RRIRYRPPRLPRPRPRPVMCPRP
shrunken log2 fold change: -0.266

RRIRERPPRLPRPRPRPAQKPRP
shrunken log2 fold change: 0.192

RRIRWRPPRLPRPRPRPYMDPRP
shrunken log2 fold change: -0.551

RRIRLRPPRLPRPRPRPRYNPRP
shrunken log2 fold change: -0.093

RRIRIRPPRLPRPRPRPQWMPRP
shrunken log2 fold change: -0.103

RRIRYRPPRLPRPRPRPCTYPRP
shrunken log2 fold change: -0.194

RRIRNRPPRLPRPRPRPVWEPRP
shrunken log2 fold change: 0.0809

RRIRIRPPRLPRPRPRPDTEPRP
shrunken log2 fold change: -0.853

RRIRYRPPRLPRPRPRPSLNPRP
shrunken log2 fold change: -0.646

RRIRCRPPRLPRPRPRPGTAPRP
shrunken log2 fold change: 0.292

RRIRVRPPRLPRPRPRPRLNPRP
shrunken log2 fold change: -0.00875

RRIRRRPPRLPRPRPRPENEPRP
shrunken log2 fold change: 0.119

RRIRVRPPRLPRPRPRPILDPRP
shrunken log2 fold change: -0.224

RRIRMRPPRLPRPRPRPPRAPRP
shrunken log2 fold change: 1.78

RRIRERPPRLPRPRPRPPILPRP
shrunken log2 fold change: -0.471

RRIRLRPPRLPRPRPRPRFPPRP
shrunken log2 fold change: -0.0246

RRIRMRPPRLPRPRPRPRLKPRP
shrunken log2 fold change: 1.82

RRIRDRPPRLPRPRPRPCGTPRP
shrunken log2 fold change: -0.0281

RRIRNRPPRLPRPRPRPGYRPRP
shrunken log2 fold change: -0.514

RRIRHRPPRLPRPRPRPCIMPRP
shrunken log2 fold change: -0.0341

RRIRYRPPRLPRPRPRPRVEPRP
shrunken log2 fold change: -0.0337

RRIRQRPPRLPRPRPRPDEQPRP
shrunken log2 fold change: 0.0145

RRIRNRPPRLPRPRPRPTMNPRP
shrunken log2 fold change: -0.134

RRIRRRPPRLPRPRPRPCSMPRP
shrunken log2 fold change: 0.464

RRIRDRPPRLPRPRPRPVVNPRP
shrunken log2 fold change: 0.24

RRIRYRPPRLPRPRPRPPWRPRP
shrunken log2 fold change: 0.331

RRIRPRPPRLPRPRPRPPYLPRP
shrunken log2 fold change: -0.376

RRIRKRPPRLPRPRPRPHNSPRP
shrunken log2 fold change: -0.24

RRIRQRPPRLPRPRPRPVAAPRP
shrunken log2 fold change: 0.51

RRIRYRPPRLPRPRPRPYVNPRP
shrunken log2 fold change: -0.361

RRIRQRPPRLPRPRPRPSQGPRP
shrunken log2 fold change: 4.77e-05

RRIRSRPPRLPRPRPRPNCVPRP
shrunken log2 fold change: 0.0124

RRIRTRPPRLPRPRPRPWYDPRP
shrunken log2 fold change: 0.0754

RRIRFRPPRLPRPRPRPPALPRP
shrunken log2 fold change: 0.509

RRIRFRPPRLPRPRPRPHCEPRP
shrunken log2 fold change: -0.0995

RRIRTRPPRLPRPRPRPWCVPRP
shrunken log2 fold change: -0.212

RRIRNRPPRLPRPRPRPAAIPRP
shrunken log2 fold change: 1.95

RRIRHRPPRLPRPRPRPHWNPRP
shrunken log2 fold change: -0.407

RRIRVRPPRLPRPRPRPGRFPRP
shrunken log2 fold change: 0.277

RRIRSRPPRLPRPRPRPDPSPRP
shrunken log2 fold change: 0.0173

RRIRMRPPRLPRPRPRPHHEPRP
shrunken log2 fold change: -0.00212

RRIRCRPPRLPRPRPRPNQHPRP
shrunken log2 fold change: -0.337

RRIRCRPPRLPRPRPRPMPVPRP
shrunken log2 fold change: 0.161

RRIRQRPPRLPRPRPRPGKTPRP
shrunken log2 fold change: -0.00992

RRIRSRPPRLPRPRPRPGGKPRP
shrunken log2 fold change: 0.0269

RRIRHRPPRLPRPRPRPRQRPRP
shrunken log2 fold change: 0.162

RRIRRRPPRLPRPRPRPHGGPRP
shrunken log2 fold change: 0.0449

RRIRFRPPRLPRPRPRPASCPRP
shrunken log2 fold change: 0.0375

RRIRPRPPRLPRPRPRPWADPRP
shrunken log2 fold change: 0.0868

RRIRERPPRLPRPRPRPGDRPRP
shrunken log2 fold change: 0.172

RRIRQRPPRLPRPRPRPRQWPRP
shrunken log2 fold change: 0.254

RRIRERPPRLPRPRPRPYFDPRP
shrunken log2 fold change: -0.926

RRIRERPPRLPRPRPRPEIMPRP
shrunken log2 fold change: -0.00047

RRIRKRPPRLPRPRPRPNMKPRP
shrunken log2 fold change: 0.125

RRIRARPPRLPRPRPRPIDDPRP
shrunken log2 fold change: 0.178

RRIRTRPPRLPRPRPRPNRQPRP
shrunken log2 fold change: 0.0749

RRIRGRPPRLPRPRPRPMNSPRP
shrunken log2 fold change: 0.0334

RRIRARPPRLPRPRPRPQIMPRP
shrunken log2 fold change: 0.0849

RRIRFRPPRLPRPRPRPVPSPRP
shrunken log2 fold change: -0.162

RRIRLRPPRLPRPRPRPADGPRP
shrunken log2 fold change: -0.082

RRIRSRPPRLPRPRPRPFYWPRP
shrunken log2 fold change: -0.0331

RRIRQRPPRLPRPRPRPGNCPRP
shrunken log2 fold change: -0.0905

RRIRDRPPRLPRPRPRPEPTPRP
shrunken log2 fold change: 0.885

RRIRHRPPRLPRPRPRPKKTPRP
shrunken log2 fold change: 0.0065

RRIRDRPPRLPRPRPRPMHGPRP
shrunken log2 fold change: -0.123

RRIRCRPPRLPRPRPRPTNPPRP
shrunken log2 fold change: -0.429

RRIRWRPPRLPRPRPRPVTYPRP
shrunken log2 fold change: 0.186

RRIRQRPPRLPRPRPRPEYNPRP
shrunken log2 fold change: -0.424

RRIRRRPPRLPRPRPRPPMEPRP
shrunken log2 fold change: -0.0681

RRIRARPPRLPRPRPRPRPGPRP
shrunken log2 fold change: 0.814
